Key:
[1] = molecular target: T1, MLO-Y4 cell surface proteins (Mus musculus, UniProt Q9DCW4); assay: Crosslinking/co-immunoprecipitation/mass spectrometry (TMT quantitative proteomics) to identify irisin receptors; type: binding; details: co-precipitated protein Etfb (ETFB_MOUSE)
T1 construct: endogenous in cells; host or cells: MLO-Y4
T1 sequence (Q9DCW4 1-255): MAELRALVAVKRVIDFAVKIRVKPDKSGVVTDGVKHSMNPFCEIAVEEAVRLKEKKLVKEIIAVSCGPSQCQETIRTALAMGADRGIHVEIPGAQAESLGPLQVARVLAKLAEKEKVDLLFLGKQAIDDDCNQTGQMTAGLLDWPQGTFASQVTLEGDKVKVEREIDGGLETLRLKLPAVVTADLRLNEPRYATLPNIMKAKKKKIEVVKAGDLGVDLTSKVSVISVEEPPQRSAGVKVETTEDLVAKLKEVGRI
Outline: (§1)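 Mouse MLO-Y4 cells were switched to serum-free FreeStyle medium for 4 h, chilled, then exposed to 10 nM His-tagged irisin (or adipsin as control) for 20 min. Cells were crosslinked with 1.5 mM DTSSP (30 min, ice), and bound proteins were pulled down on Ni-NTA and eluted with 250 mM imidazole. Eluates were separated by SDS-PAGE, trypsin-digested in gel, TMT 6-plex labelled and quantified by MS3-based LC-MS/MS on an Orbitrap Fusion Lumos.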

[2] = molecular target: T2, MLO-Y4 cell surface proteins (Mus musculus, UniProt P08249); assay: as above; type: binding; details: co-precipitated protein Mdh2 (MDHM_MOUSE)
T2 construct: endogenous in cells; host or cells: MLO-Y4
T2 sequence (P08249 25-338): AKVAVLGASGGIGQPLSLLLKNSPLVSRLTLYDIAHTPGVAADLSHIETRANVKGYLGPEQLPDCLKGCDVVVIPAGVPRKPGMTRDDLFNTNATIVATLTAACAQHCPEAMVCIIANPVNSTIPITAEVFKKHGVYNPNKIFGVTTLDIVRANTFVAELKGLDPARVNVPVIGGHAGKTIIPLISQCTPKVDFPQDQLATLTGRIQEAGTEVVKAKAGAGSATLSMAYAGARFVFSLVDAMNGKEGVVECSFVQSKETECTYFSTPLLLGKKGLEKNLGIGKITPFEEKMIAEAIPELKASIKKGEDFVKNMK
Outline: as §1

B1: irisin: secreted cleaved form of FNDC5; recombinant human/mouse irisin with C-terminal his tag produced in HEK293 cells (protein)
chain: DSPSAPVNVTVRHLKANSAVVSWDVLEDEVVIGFAISQQKKDVRMLRFIQEVNTTTRSCALWDLEEDTEYIVHVQAISIQGQSPASEPVLFKTPREAEKMASKNKDEVTMKE
modifications: left off: small tags and cut ends
notes: secreted cleaved form of FNDC5; recombinant human/mouse irisin with C-terminal his tag produced in HEK293 cells
[1]
  TMT signal-to-noise ratio: 409.026
  irisin/adipsin TMT signal-to-noise ratio: 0.560
[2]
  TMT signal-to-noise ratio: 858.89
  irisin/adipsin TMT signal-to-noise ratio: 0.336
